From article PMC5392032 (Science Advances, 2017) come the findings set out here.

The series concerns the molecule itself. Put plainly: SEC-MALS.

B1: Vps4^E233Q (ATP hydrolysis-deficient mutant of Saccharomyces cerevisiae vacuolar protein sorting-associated protein 4) (enzyme)
chain: KKSPSAGSGSNGGNKKISQEEGEDNGGEDNKKLRGALSSAILSEKPNVKWEDVAGLEGAKEALKEAVILPVKFPHLFKGNRKPTSGILLYGPPGTGKSYLAKAVATEANSTFFSVSSSDLVSKWMGESEKLVKQLFAMARENKPSIIFIDQVDALTGTRGEGESEASRRIKTELLVQMNGVGNDSQGVLVLGATNIPWQLDSAIRRRFERRIYIPLPDLAARTTMFEINVGDTPCVLTKEDYRTLGAMTEGYSGSDIAVVVKDALMQPIRKIQSATHFKDVSTEDDETRKLTPCSPGDDGAIEMSWTDIEADELKEPDLTIKDFLKAIKSTRPTVNEDDLLKQEQFTRDFGQEGN
Turning to B1, the “stoichiometry N” value is 6.

In general, stoichiometry N refers to the number of molecules, sites or subunits per partner or assembly.
